Test results taken from US20050106674A1.

Each substance was assayed against recombinant soluble HEK4 binding protein purified from CHO/HL6 cell-conditioned medium (human) (UniProt P52803) (assay: BIAcore competition: soluble receptor extracellular domain preincubated with 0.250 µg/ml HEK4 BP, binding to immobilized HEK4 receptor).
UniProt P52803, sequence (P52803 20-198 limits assumed, form in doubt): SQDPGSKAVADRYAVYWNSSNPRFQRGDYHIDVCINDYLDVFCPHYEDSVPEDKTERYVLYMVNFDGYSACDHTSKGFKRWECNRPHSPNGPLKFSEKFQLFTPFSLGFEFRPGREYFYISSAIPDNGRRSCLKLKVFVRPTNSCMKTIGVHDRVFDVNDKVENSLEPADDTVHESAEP

| IC50 [µg/mL] | Substance |
| --- | --- |
| 5 | ECK soluble receptor (purified extracellular domain) (from UniProt P29317 24-537) |
| 0.55 | HEK4 receptor extracellular domain (HEK4-X), produced in CHO cells (from UniProt P29320 21-541) |
| 10.5 | HEK8 soluble receptor (purified extracellular domain) (from UniProt P54764 20-547) |
